B1: CL-453181 (antibody, V domains shown)
VH: QVQLVESGGGVVQPGRSLRLSCAASGFTFSYYGMHWVRQAPGKGLEWVSIIWYDGSNKFYADSVKGRFTISRDNSKDTLYLEMNSLRAEDTAVYYCARVEFYNGSGRDFYYGLDVWGQGTTVTVSS
VL: EIVMTQSPATLSVSPGEGATLSCRASQSVSSNLAWYQQKPGQAPRLLISGASTRATGVPARFSGSGSGTEFALTISSLQSEDFAVYYCQQYSKLWTFGQGTKVEIK
B2: CL-449759 (antibody, V domains shown)
VH: QVHLVESGGGVVQPGESQRLSCAASGFTFSNYGMHWVRQAPGKGLEWVALIWYDGSNKFYADSVKGRFTISRDNSKNTLYLHMNSLRAEDTAMYYCAKVPNWNDDKYTMDVWGQGTTVTVTS
VL: not shown
B3: CL-460369 (antibody, V domains shown)
VH: QVQLVESGGGVVQPGRSLRLSCAASGFTFSNYGMHWVRQAPGKGLEWVGIIWYDGSNKYYIDSVKGRFTISRDNSRNTLYLQINSLRAEDTAVYYCARDGGWNDDYYYVMDVWGQGTTVTVSS
VL: DIVMTQSPDSLAVSLGEGATINCKSSQSVLYSSNNKNYLAWYQQKPGQPPKVLIYWASIRESGVPDRFSGSGSGTDFTLTISSLQAEDVAVYYCQQYYSMCSFGQGTKLEIK
B4: CL-460506 (antibody, V domains shown)
VH: QVQLVESGGGVVQPGRSLRLSCAASGFTFSNYGMHWVRQAPGKGLEWMAIIWYDGSNKYYADSVKGRFTISRDNSMNTLYLQMNSLRPEDTALYYCARAFYYGSGTLDYWGQGTLVTVSS
VL: EIVLTQSPATLSVSPGERATLSCRASQSVSSHLAWYQQKFGQAPRLLIYGASNRATGIPARFSGSGSGTEFTLTISILQSEDFAVYYCQQYNNWFTFGPGTKIDIK
B5: CL-508731 (antibody, V domains shown)
VH: QVQLVESGGGVVQPGRSLRLSCVASGFTFSNNGMHWVRQAPGKGLEWVAIIWHDGSNKFYAESVRGRFTISRDNSNNTLYLQMNSLRAEDTAVYYCARDRMFGSGSWNYFDPWGQGTLVTVSS
VL: EIVLTQSPATLSLSPGERATLSCRASQSISTYLAWYQQKPGQAPRLLIYDASNRATGIPARFSGSGSGTDFTLTISSLEPEDFAVYYCQQRSYWWTFGQGTKVEIK
B6: CL-450034 (antibody, V domains shown)
VH: QVQLVESGGGAVQAGTSLRLSCAASGFTFSYNGMHWVRQGPGKGLEWVAIIWYDGGNKFYADSVKGRFTISRDNSKNMLYLQMNRLRAEDTAVYYCARAWNYADSKYSMDVWGQGTTVTVSS
VL: not shown
B7: CL-460619 (antibody, V domains shown)
VH: QVQLVESGGGVVQPGRSLRLSCAASGFTFDYYGMHWVRQAPGKGLEGVAIIWYDGSNKFYADSVKGRFTISRDNSKNTLYLQMTSLRVEDTAVYYCARDGRIGDPGPYFDYWGQGTLVTVSS
VL: EIVMTQSPATLSVSPGERPTLSCRASQSVSSKLAWYQQKPDQAPRLLIYGASTRATGIPPRFSGSGSGTEFTLTIDSLQSEDFAVYYCQQYHKWWTFGQGTKVEIK
B8: CL-462911 (antibody, V domains shown)
VH: QVHLVESGGGVVQPGRSLTLSCAASGFTFSSCGMHWVRQAPGKGLEWLAVIWYDGSNKYYADSVKGRFTISRDNSKNTLYLQMNSLRAEDTAVYYCARDGGYVRDYYYGMDVWGQGTTVTVSS
VL: not shown
B9: CL-509177 (antibody, V domains shown)
VH: QVQLVESGGGVVQPGRSLRLSCAASGFSFSSYGMHWVRQTPGKGLEWVAIIWYDGSNKFYADSVKGRFIISRDNSKNTLYLQMNSLRAEDTAVYYCARDGGYSTSAGDFDYWGQGTLVTVSS
VL: EIVLTQSPGTLSLSPGERATLSCRASQSVSSSYLAWYQQKPGQAPRLLIYGASSRATGIPDRFSGRGSGTDFTLTISRLEPEDFAVYYCQQYVSSFTFGPGTKVDIN
B10: CL-449007 (antibody, V domains shown)
VH: QVQVVESGGGVVQPGRSLRLSCAASGFTFSNYGMHWVRQAPGKGLEWVAIIWYDGSHKFYANSVKGRFTISRDNSKNTLFLQMNSLRAEDTAVYYCARVGNGNSDWTDAFDIWGQGTMVTVSS
VL: DIQMTQSPSTLSASVGDRVTITCRASQSINSWLAWYQQKPGKAPKLLIYKASSLESGVPSRFSGSGSGTEFTLTISSLQPDDFATYYCQQYNTYWTFGQGTKVEIK
B11: CL-458015 (antibody, V domains shown)
VH: QVHLVESGGGVVQPGRSLRLSCAASGFTFSNYGMHWVRQAPGKGLDWVAIIWYDGSNKFYADSVQGRFTISRDNSKNTLYLQMNSLRAEDTAVYYCAKVQDLLGVPSTLGDHYTTDVWGQGTSVTVSS
VL: DIQMTQSPSTLSASVGDRITITCRASQSINDWLAWYQQKAGKAPKLLIYKASSLESGVPSRFSGSGSGTDFTLTISSLQTDDFAIYYCQQYNHYWTFGQGTKVEIK
B12: CL-460406 (antibody, V domains shown)
VH: QIQLVESGGGVVQPGRSLRLSCAASGFTFSNSGMHWIRQAPGKGLEWVTIIWYDGSNKYYADSVKGRFTISRDNSKNTLYLQMNSLRAEDTAIYYCARAYSSSSDDYYGMDVWGQGTTVTVSS
VL: DIQMTQSPSTLSASVGDRVTITCRASQSISSWLAWYQQKPGKAPKLLIYKASSLESGVPSRFSGSGSGTDFTLTISSLQPDDFATYYCQQFYNYWTFGQGTKVEIT
B13: CL-449849 (antibody, V domains shown)
VH: QVQLVESGGGAVQAGTSLRLSCAASGFTFSYNGMHWVRQGPGKGLEWVAIIWYDGGNKFYADSVKGRFTISRDNSKNMLYLQMNRLRAEDTAVYYCARAWNFADNKYSMDVWGQGTTVTVSS
VL: DIQMTQSPSTLSASVGDRVTITCRASQSISSWLAWYQQKPGKAPQLLIYKASSLESGVPSRFSGSGSGTEFTLTISSLQPDDFATYYCQQYYIYWTFGQGTKVDIK
B14: CL-508758 (antibody, V domains shown)
VH: QVQLVESGGGVVQPGRSLRLSCAASGFTFSNYGMHWVRQTPGRDLEWVAIIWYDGSYKFYADSVKGRFSISRDNSKNTLNLEMKSLRVEDTAVYYCAKAYDTSSDDKYGMDVWGQGTTVTVTS
VL: DIQMTQSPSTLSASVGDRVTITCRASQSISIWLAWYQQKPGKAPKLLIYRASDLESGVPSRFSGSGSGTGFTLTISSLQPDDFATYYCQQYNSYWTFGQGTKVEIK
B15: CL-459404 (antibody, V domains shown)
VH: QVQLVASGGGVVQPGRSLRLSCAASGFTFSNYGMHWVRQAPGKGLEWVAIIWYDGSKKYYSDSVKGRFTISRDNSKNTLNLQMNSLRAEDTAVYYCARAYGSGSYSDDYYGMDVWGQGTTVTVSS
VL: DIQMTQSPSTLSASVGDRVTITCRASQSISPWLAWFQQKPGKAPKLLIYKASNLESGVPSRFSGSGSGTEFTLTISSLQPDDFATYYCQQYYTYWTFGQGTKVEIK
B16: CL-464181 (antibody, V domains shown)
VH: QVQLVESGGGAVQAGTSLRLSCAASGFSFSYNGMHWVRQGPGKGLEWVAIIWYDGGNKFYADSVKGRFTISRDNSKKMLYLQMNRLRAEDTAVYYCARAWNFADNKYSMDVWGQGTTVTVSA
VL: DIQMTQSPSTLSASVGDRVTITCRASQSISCWLAWYQQKPGKAPQLLIYKASSLESGVPSRFSGSGSGTEFTLTISSLQPDDFATYYCQQYYIYWTFGQGTKVDIK
B17: CL-459075 (antibody, V domains shown)
VH: QVQLVASGGGVVQPGRSLRLSCAASGFTFSNYGMHWVRQAPGKGLEWVSIIWYDGSKKYYSDSVKGRFTISRDNSKNTLYLQMNSLRAEDTAVYYCARAYGSGSYSDDYYGMDVWGQGTTVTVSS
VL: DIQMTQSPSTLSASVGDRVTITCRASQSISTWLAWCQQKPGKAPKLLIYKASNLESGVPSRFSGSGSGTEFTLTISSLQPDDFATYYCQQYYSYWTFGQGTKVEIK
B18: CL-464097 (antibody, V domains shown)
VH: QVQLVESGGGAVQPGRSLRLSCAASGFTFSYNGMHWVRQAPGKGLEWVAIIWYDGSNKYYAESVKGRFTISRDNSKDTLYLQMNSLRAEDTAIYYCVRAWNYEDKKYSMDVWGQGTTVTVSS
VL: DIQMTQSPSTLSASVGDRVTITCRASQSISSWLAWYQQKPGKAPKLLIYKASSLESGVPSRFSGSGSGTDFTLTISSLQPDDFATYYCQQYNYFWTFGQGTKVEIR
B19: CL-449869 (antibody, V domains shown)
VH: QVQLVESGGGAVQPGRSLRLSCAASGFTFSYNGMHWVRQAPGKGLEWVAIIWYDGSNKFYADSVKGRFTISRDNSKDTLYLEMNSLRAEDTAIYYCARAWNYDDKKYSMDVWGQGTTVTVSS
VL: DIQMTQSPSTLSASVGDRVTITCRASQSISSWLAWYQQKPGKAPKLLIYKASSLESGVPSRFSGSGSGTEFTLTISSLQPDDFATYYCQQYNYFWTFGQGTKVEIR
B20: CL-449724 (antibody, V domains shown)
VH: QVHLVASGGGVVQPGRSLRLSCEVTGFTFSSYGMHWVRQDPGRGLEWVAIIWYDGSNKFYADSVKGRFTISRDNSKNTLYLQMNSLRAEDTAVYYCARSYGILTGYQTKYGMDVWGQGTTVTVSS
VL: not shown
B21: CL-464277 (antibody, V domains shown)
VH: QVQLVASGGGVVQPGRSLRLSCAVSGFTFRNYGMHWVRQDPGRGLEWVAIIWYDGSYKFYADSVKGRFTISRDNSKNTLYLQMNSLRAEDTAVYYCARSYGSLTGDQTKYGMDVWGQGTTVSVSS
VL: not shown
B22: CL-509293 (antibody, V domains shown)
VH: QVQLVASGGGVVQPGRSLRLTCAASGFTFSNYGMHWVRQSPGRGLEWVAIIWYDGSNKFYADSVKGRFTISRDNSKNTLYLQMNSLRAEDTAVYYCAKAEQRTNDNYYKYGMDVWGQGTTVTVST
VL: not shown
B23: CL-462788 (antibody, V domains shown)
VH: QVQLVESGGGVVQPGRSLRLSCAASGFTFRNYGMHWVRQAPGKGLEWVAIIWYDGSYKFYADSVKGRFTISRDNSKNTLYLQMNSLRAEDTAMYYCARDDALELRSFDIWGQGTMVTVSS
VL: DVVMTQSPLSLPVTLGQPASISCRSSQSLVYSDENTYLSWFQQRPGQSPRRLIYKISNRDSGVPDRFSGSGSGTDFTLKISRVEAEDVGVYYCMQGTHWPRTFGQGTEVEIK
B24: CL-509025 (antibody, V domains shown)
VH: QVQLVESGGGVVQPGRSLRLSCVASGFTFSDYGMHWVRQAPGKGLEWVAVIWYDGTKEFFADSVKGRFTISRDNSKDTLYLQMNSLRAEDTGIYYCATYKWNSHLDYWGQGTLVTVSS
VL: EIVLTQSPATLSLSPGERATLSCRASQTISSYLAWYQQKPGQAPRLLIYDASNRATGIPARFSGSGSGTDFTLTISSLEPEDFTVYYCQQRSNWPLTFGGGTKVGIK

biological target: recombinant full-length PfCSP (Plasmodium falciparum circumsporozoite protein, strain NF54) (Plasmodium falciparum NF54, UniProt P19597)
Sequence (P19597 20-375): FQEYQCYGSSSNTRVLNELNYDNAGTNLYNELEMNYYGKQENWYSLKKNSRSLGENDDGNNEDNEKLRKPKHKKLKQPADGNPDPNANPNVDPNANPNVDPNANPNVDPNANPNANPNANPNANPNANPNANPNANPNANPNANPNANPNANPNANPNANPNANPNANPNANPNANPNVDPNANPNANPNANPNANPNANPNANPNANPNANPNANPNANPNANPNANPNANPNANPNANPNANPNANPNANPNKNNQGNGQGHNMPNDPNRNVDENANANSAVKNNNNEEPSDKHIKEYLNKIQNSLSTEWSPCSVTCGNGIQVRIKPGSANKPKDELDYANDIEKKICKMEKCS

Binding result, binds:
B1
B2
B3
B4
B5
B6
B7
B8
B9
B10
B11
B12
B13
B14
B15
B16
B17
B18
B19
B20
B21
B22
B23
B24
